{
  "source": "the nanobody polyreactivity screen of Harvey et al. (2022)",
  "data": [
    {"test": "yeast display, Sf9 membrane polyspecificity reagent, FACS + sequencing; frameworks hold sequencing errors", "procedure,_shortened": "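In a synthetic yeast display library (Saccharomyces cerevisiae BJ5465), nanobody expression was induced with galactose for 36–48 hours. FACS gates were set low and high (top ~1%) using anti-HA fluorescence for expression and streptavidin fluorescence for binding of the Sf9 membrane reagent. Each polyreactivity label is drawn from the gate of origin.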", "values": [
      {"sequence": "QVQLVESGGGLVQAGGSLSLSCAASGINFWRYAMGWYRPAPGKERELVAGITSRGGSTYYADSVKGRFTISRDNAKNTVYLQMNSLKPEDTAVYYCNADWYGQLWWGVDYWGQGTQVTVSS", "polyreactivity (PSR sort gate)": "high polyreactivity"},
      {"sequence": "QVQRVESGGGLVQAGGSLRLSCAASGSIFGYYAMGWSRQAPVKERELVAAITRSCGSTYYADSVKGRFTISRDNAKTTVYLQMNSLKPEDTAVYYCNAVRYAVRLPAFPGYDYLGQGTQVTVSS", "polyreactivity (PSR sort gate)": "high polyreactivity"},
      {"sequence": "QVQLVESGGGLVQAGGSLRLTCAASGRIFIYYAMGWYRQAPGKERELVAAISWGGGRTYYADSVKGRFTISRDNAKNTVYLQINSLKPEDTAVYYCAAGVYTGQHEYDYWGQGTQVTVSS", "polyreactivity (PSR sort gate)": "low polyreactivity"},
      {"sequence": "QVQLVDSGGGLVQAGGSHRLSCAASGIIFPTYDMGWYRPAPGKERELVAAITWSTGSTTYADSVKGRFTISRDNAKNTVYLQMNSLKPEDTAVYYCNKDSEGSGGEFDDWGQGTQVTVSS", "polyreactivity (PSR sort gate)": "low polyreactivity"},
      {"sequence": "QVQLVESGGGLVQAGGSLRLTCAASGSTFYSYTMGWYRQAPGKERELVAVISSSGGRTYYADSVKGRFTISRDNAKNTVYFQMNSLKPEDTAVYYCAASQRGYFDYRLWSFRSDSWGQGTQVTVSS", "polyreactivity (PSR sort gate)": "high polyreactivity"},
      {"sequence": "QVQLVESGGGLVQAGGSLRLSCAASGIIFSSNAMGWYRQAPGKERELVAAISRRGGSTSYADSVKGRFTISRDNAKNTVYLQINSLKPEDTAVYYCAARYVYPGEDYWGQGTQVTVSS", "polyreactivity (PSR sort gate)": "high polyreactivity"},
      {"sequence": "QVQLVESGGGLVQAGGSLRLSCAASGSTFFFNAMGWYRQAPGKERELVAGISSSGGSTHYADSVKGRFTISRDNAKNTVYLQMNSLKPEDTAVYYCNAQQYLPSEGDYWGQGTQVTVSS", "polyreactivity (PSR sort gate)": "low polyreactivity"},
      {"sequence": "QFQLVESGGGLVQAGGSLRLSCAASGRTFKKYAMGWYRQAPGKESELVAAITFSGGSTYYADSVKGRFTISRDNANNTVYLQMNSLKPEDTAVYYCAAKRLGGSYGSDYWGQGTQVTVSS", "polyreactivity (PSR sort gate)": "high polyreactivity"},
      {"sequence": "QVQLVESGVGLVQAGGSLRLSCAASGRTFPSYNMGWYRQAPGKERELVAAITWTGGSTYYSDSVKGRFTISRDNAKNTVYLQMNSLKPEDTAVYYCATEEVYGQGNYWGQGTQVTVSS", "polyreactivity (PSR sort gate)": "low polyreactivity"},
      {"sequence": "QVQLQESVGGLVQAGGSLRLSCAASGTISPQPAMGWYRPAPGKEREFVAGIDTGAITNYADSVKGRFTISRDNAKNTVYLQMNSLKPEDTAVYYCAVFPAAYDYYERYYTYWGLGTQVTVSS", "polyreactivity (PSR sort gate)": "low polyreactivity"},
      {"sequence": "QVQLVESGGGLVQAGGSLRLSCAASGRIFYFNTMGWYRQAPGKERELVAAISRSGTSTYYADSVKGRFTISRDNAKNTVYLQMNSLKPEDTAVYYCAAVKSYYKLDYWGQGTQVTVSS", "polyreactivity (PSR sort gate)": "high polyreactivity"},
      {"sequence": "QVQLVESGGGLVQAGGSLRLSCAASGRIFRRNAMGWYRQAPGKERELVAGIDSSGGSTYYADSVKGRFTISRDNAKNSVYLQMNSLKPEDTAVYYCNAVGYSQGYDYWGQGTQVTVSS", "polyreactivity (PSR sort gate)": "high polyreactivity"},
      {"sequence": "QVQLVESGGGLVQAGGSLRLICAASGFTFYENAMGWYRQAPGKERELVATISYSGGTTYADSVKGRFTISRDNAKNTVFLQMISLKPEDTAVYYCAADKDGYTYEFDYWGQGTQVTVSS", "polyreactivity (PSR sort gate)": "low polyreactivity"},
      {"sequence": "QVQLVESGGGLVQAGGSLRLSCAASGSTFVKNAMGWYRQAPGKERELVAAIRSSGGSTYYADSVKGRFTISRDNAKNTVYLQMNSLKPEDTAVYYCNKVLQASRSKYYYWGQGTQVTVSS", "polyreactivity (PSR sort gate)": "high polyreactivity"},
      {"sequence": "QVQLVESGGGLVQAGGSLRLSCAASRSTFSGNAMGWYIQAPGKERELVATITSDGTTYYADSVKGRFTISRDNAKNNVYLLMNSLKPEDTAVYYCAARYTAYRDDYWGQGTHVTVSS", "polyreactivity (PSR sort gate)": "high polyreactivity"},
      {"sequence": "QVQLVESGGGLVQEGGRLRLSCAASGRIISINAMGWYRQAPGKERELVAAITRGGTTYADSVKGRFTISRDIAKNTVYLHMNRLKPEDPAVYYCNARTGRSPSGFRYWGQGTQVTVSS", "polyreactivity (PSR sort gate)": "high polyreactivity"},
      {"sequence": "QVQLVESGGGLVQAGGSLRLSCAASGSIFDYYAMGWYRQAPGKETEFVADICSSGTSTYYADSVKGRFTISRDNAKNTVYLQMNSLKPEDTAVYYCNSELDSWLSYVVAYFARFDYWGQGTQVTVSS", "polyreactivity (PSR sort gate)": "high polyreactivity"},
      {"sequence": "QVQLVESGGGLVQAGGSLRLSCAASGSIFIRNAMGWYRQAPGKERELVAANSGSGSSTYYADSVKGRFTNSRDNAKNTVYLQMNSVKPEDTAVYYCNTDRTLSYQYGGYDYWGLGTQVTVSS", "polyreactivity (PSR sort gate)": "low polyreactivity"},
      {"sequence": "QVQLVESGGGLVQAGGSLRLSCAASGSTFYVNAMGWYRQAPGKERELVAAITKSGGNTYYADSVKGRFTISRDNAKNTVYLQMNSLKPEDTAVYYCAKKYPRDMDYWGQGTQVTVSS", "polyreactivity (PSR sort gate)": "high polyreactivity"},
      {"sequence": "QVQLVESGGGLVQAGGSLLLSCAASGRTFILNAMGWYRQAPGKERELVAAISWSGGSTYYADSVKGRFTISRDKSKNTVYLQMNSLKPEDPAVYYCAAETYAYLFHTYDYGGQGTQVTVSS", "polyreactivity (PSR sort gate)": "low polyreactivity"},
      {"sequence": "QVQLVESGGGLVQAGGRLRLSCAASGRTFTYFAMGWYRKAPGKERELVAAISWDDDSTYYADSVKGRFTISRDYAKNTVYLQMNSLKPEDTAVYYCAASYYRQSGEYDYWGQGTQVTVSS", "polyreactivity (PSR sort gate)": "low polyreactivity"},
      {"sequence": "QVQLLESGVGLVQEGGSLRLSCPASGRIFGSKAMGWYRQAPGKERELVAAITRGGSTNYADSVEGRFTISRDNAKNTVYLQMNSLKPEYTAVYYCAVRWYRKYNYWGQGTLVTVSS", "polyreactivity (PSR sort gate)": "high polyreactivity"},
      {"sequence": "QVQLVESGGGLVQAGGSLRLSCAASGRIFVYYAMGWYRPAPGKERELVATITETGGSTYYADSVKGRFTISRDNAKNTVYLQMNSLKPEDSAVYYCNADYWGTYGWDWYWYVYWGQGTQVTVSS", "polyreactivity (PSR sort gate)": "low polyreactivity"},
      {"sequence": "QVQLVESGGGLVQAGGSLRLSCAASGSIFGRNAMGWYRQAPGKERELVAGMFYADSEKGRFTISRDNAKNTVYLQMNSLKPEDTAVYYCNADGTTDISNDNWYGYWGQGTQVTVSS", "polyreactivity (PSR sort gate)": "low polyreactivity"},
      {"sequence": "QVQLVESGGGLVQAGGSLRLSCAASGSTFWYNAMGWYRPAPGKERELVAAITWSGGSTYYADSVKGRFTISRDNAKNTVYLQMNSLKPEDTAVYYCAADHSAYSVFSGYKYGYWGQGTQVTVSS", "polyreactivity (PSR sort gate)": "low polyreactivity"},
      {"sequence": "QVQLVESGGGLVQAGGSLRLSCAASGSIFHPYTMGWYRQAPGKERELVAAISWSGGNTNYADSVKGRFTISRDNAKNTVYLQMNSLKPDDTAVYYCIKATNLSGGYDSWGLGTQVTVSS", "polyreactivity (PSR sort gate)": "low polyreactivity"},
      {"sequence": "QVQLVESGGGLVQAGGSLRLSCAASGRTFAFNTMGWYRQAPGKERELVDAIRFSAGSTYYADSVKGRFTISRDNAKNTVYLQMNSLKPEDTAVYYCAASYGDRGGWGPGVDYWGQGTQVTVSS", "polyreactivity (PSR sort gate)": "low polyreactivity"},
      {"sequence": "QVQLVESGGGLVQAGGSLRLSCAASGSTFSYYRMGWYRQATGTERELVASIDYSGESTYYADSVKGRFTISLDNAKNTVYLQMNSLNPEDTAVYYCAADDYPWNRYEYWGQGTQVTVSS", "polyreactivity (PSR sort gate)": "low polyreactivity"},
      {"sequence": "QVQLVESGGGLVQAGGSLRLSCAASGSIFGYNAMGWYRQAPGKERELVAAISRSGGRTYYADSVKGRFTISRDNAKNTVYLQMNSLKPEDTAVYDCAAPVWRYYRGKTFDYWGQGTQVTVSS", "polyreactivity (PSR sort gate)": "high polyreactivity"},
      {"sequence": "QVQVVESWGGLVQEAGSLRLSCAASGRTFAHYNMGSYRQAPGKERELVARIDWSCGNTYYADSVKGRFTISRDNAKITVFLQMNRLKPQDTAVYYCAAVPAFYNAWGEDYEYWGQGTHVTVSS", "polyreactivity (PSR sort gate)": "low polyreactivity"},
      {"sequence": "QVQLVDSGGGLVQAGGSLRLSCAASGFIFGINAMGWYRQAPGKERELVSAISTGDRTNYADSVKRRFTISRDNAKNTVYLQMYSLKPEDTAVYYFAKDWRRNRPYEWTYDYWGQGTQVTVSS", "polyreactivity (PSR sort gate)": "low polyreactivity"},
      {"sequence": "QVQLVESGGGLVQAGGSLRLSCAASGRIFQYYVMGWYRQAPGKERELVAAIRSGGTTNYADSVKGRFTISRDNAKNTVYLQMNSLKPEDTAVYYCNARYRNTFYTRRYAYWGQGTQVTVSS", "polyreactivity (PSR sort gate)": "high polyreactivity"}
    ]}
  ]
}
